Measurements reported in patent US20240083965A1 (Novo Nordisk, published 2024).
*1 amine or outer side, *2 acyl side, *3 side chain or, on linkers, in order; H or OH if unused. Where no end group is shown, it is not given here. Side-chain parts run from the residue outwards. [ ]: non-standard residue; d: D form. The star is where a group is joined. C16 diacid = O=C(O)CCCCCCCCCCCCCCC(=O)*; γGlu = O=C(O)[C@H](CCC(=O)[*:2])N[*:1]; AEEA = NCCOCCOCC(=O)O; Aib = CC(C)(N)C(=O)O

T1: human GIP receptor (human, UniProt P48546 22-466)
T1 sequence (looked up): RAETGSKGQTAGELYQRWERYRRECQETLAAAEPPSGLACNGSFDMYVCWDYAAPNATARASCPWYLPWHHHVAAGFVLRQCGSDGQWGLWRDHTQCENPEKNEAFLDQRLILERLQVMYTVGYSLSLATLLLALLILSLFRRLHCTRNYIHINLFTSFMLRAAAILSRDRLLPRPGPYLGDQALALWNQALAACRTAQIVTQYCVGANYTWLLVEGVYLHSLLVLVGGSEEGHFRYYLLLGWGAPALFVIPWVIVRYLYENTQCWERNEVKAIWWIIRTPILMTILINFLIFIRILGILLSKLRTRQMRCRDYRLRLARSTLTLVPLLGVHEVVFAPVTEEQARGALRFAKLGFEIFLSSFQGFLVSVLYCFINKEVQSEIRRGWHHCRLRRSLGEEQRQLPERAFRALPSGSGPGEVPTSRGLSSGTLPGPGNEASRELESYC

B1: Parent compound No. 1 (peptide)
peptide: Y[Aib]EGTFTSDYSILLEEQAAREFIEWLLAGGPSK([AEEA-AEEA-γGlu-C16 diacid])GAPPPS-OH
modifications: N-terminus assumed
SMILES: CC[C@H](C)[C@H](NC(=O)[C@H](Cc1ccccc1)NC(=O)[C@H](CCC(=O)O)NC(=O)[C@H](CCCNC(=N)N)NC(=O)[C@H](C)NC(=O)[C@H](C)NC(=O)[C@H](CCC(N)=O)NC(=O)[C@H](CCC(=O)O)NC(=O)[C@H](CCC(=O)O)NC(=O)[C@H](CC(C)C)NC(=O)[C@H](CC(C)C)NC(=O)[C@@H](NC(=O)[C@H](CO)NC(=O)[C@H](Cc1ccc(O)cc1)NC(=O)[C@H](CC(=O)O)NC(=O)[C@H](CO)NC(=O)[C@@H](NC(=O)[C@H](Cc1ccccc1)NC(=O)[C@@H](NC(=O)CNC(=O)[C@H](CCC(=O)O)NC(=O)C(C)(C)NC(=O)[C@@H](N)Cc1ccc(O)cc1)[C@@H](C)O)[C@@H](C)O)[C@@H](C)CC)C(=O)N[C@@H](CCC(=O)O)C(=O)N[C@@H](Cc1c[nH]c2ccccc12)C(=O)N[C@@H](CC(C)C)C(=O)N[C@@H](CC(C)C)C(=O)N[C@@H](C)C(=O)NCC(=O)NCC(=O)N1CCC[C@H]1C(=O)N[C@@H](CO)C(=O)N[C@@H](CCCCNC(=O)COCCOCCNC(=O)COCCOCCNC(=O)CC[C@H](NC(=O)CCCCCCCCCCCCCCC(=O)O)C(=O)O)C(=O)NCC(=O)N[C@@H](C)C(=O)N1CCC[C@H]1C(=O)N1CCC[C@H]1C(=O)N1CCC[C@H]1C(=O)N[C@@H](CO)C(=O)O

The molecules below were run against human GLP-1 receptor (human, UniProt P43220 24-463) (assay: cell-based or functional assay).

Molecule | hGLP-1R, CRE Luc 0% HSA EC50 (pM) | hGLP-1R, CRE Luc 1% HSA EC50 (pM)
Y[Aib]EGTFTSDYSILLEEQAAREFIEWLLAGGPSKGAPPPS-OH (not fully specified (residue 33)) [Parent compound No. 3] | 4 | 360
Y[Aib]EGTFTSDYSILLEEQAAREFIEWLLAGGPSKGAPPPS-OH (not fully specified (residue 33)) [Parent compound No. 2] | 1.5 | 111
Y[Aib]EGTFTSDYSILLEKQAAREFIEWLLAGGPSSGAPPPS-OH (not fully specified (residue 16)) [Parent compound No. 4] | 4.2 | 202
B1 | 2.1 | 154

The molecules below were run against T1, human GIP receptor (assay: cell-based or functional assay).

Molecule | hGIPR, CRE Luc 0% HSA EC50 (pM) | hGIPR, CRE Luc 1% HSA EC50 (pM)
human GIP (from UniProt P09681 52-93) (ligand) | 11.3 | 6.4
Y[Aib]EGTFTSDYSILLEEQAAREFIEWLLAGGPSKGAPPPS-OH (not fully specified (residue 33)) [Parent compound No. 3] | 5.6 | 444
Y[Aib]EGTFTSDYSILLEEQAAREFIEWLLAGGPSKGAPPPS-OH (not fully specified (residue 33)) [Parent compound No. 2] | 1.8 | 97
Y[Aib]EGTFTSDYSILLEKQAAREFIEWLLAGGPSSGAPPPS-OH (not fully specified (residue 16)) [Parent compound No. 4] | 4.7 | 188
B1 | 3.1 | 156
